Measured values: patent US20210324058A1 (BRIGHAM AND WOMEN S HOSPITAL, published 2021)

Experiments:
[1] = target: T1, recombinant human NEDD9 (neural precursor cell expressed, developmentally down-regulated 9), OriGene TP307200 (human, UniProt Q14511 1-834); assay: microscale thermophoresis, labelled NEDD9 20 nM, P-Selectin titrated
T1 construct: Bought recombinant protein; In microscale thermophoresis it was labelled with the dye NT-647-NHS; also called recombinant NEDD9; purified human NEDD9
T1 sequence (looked up): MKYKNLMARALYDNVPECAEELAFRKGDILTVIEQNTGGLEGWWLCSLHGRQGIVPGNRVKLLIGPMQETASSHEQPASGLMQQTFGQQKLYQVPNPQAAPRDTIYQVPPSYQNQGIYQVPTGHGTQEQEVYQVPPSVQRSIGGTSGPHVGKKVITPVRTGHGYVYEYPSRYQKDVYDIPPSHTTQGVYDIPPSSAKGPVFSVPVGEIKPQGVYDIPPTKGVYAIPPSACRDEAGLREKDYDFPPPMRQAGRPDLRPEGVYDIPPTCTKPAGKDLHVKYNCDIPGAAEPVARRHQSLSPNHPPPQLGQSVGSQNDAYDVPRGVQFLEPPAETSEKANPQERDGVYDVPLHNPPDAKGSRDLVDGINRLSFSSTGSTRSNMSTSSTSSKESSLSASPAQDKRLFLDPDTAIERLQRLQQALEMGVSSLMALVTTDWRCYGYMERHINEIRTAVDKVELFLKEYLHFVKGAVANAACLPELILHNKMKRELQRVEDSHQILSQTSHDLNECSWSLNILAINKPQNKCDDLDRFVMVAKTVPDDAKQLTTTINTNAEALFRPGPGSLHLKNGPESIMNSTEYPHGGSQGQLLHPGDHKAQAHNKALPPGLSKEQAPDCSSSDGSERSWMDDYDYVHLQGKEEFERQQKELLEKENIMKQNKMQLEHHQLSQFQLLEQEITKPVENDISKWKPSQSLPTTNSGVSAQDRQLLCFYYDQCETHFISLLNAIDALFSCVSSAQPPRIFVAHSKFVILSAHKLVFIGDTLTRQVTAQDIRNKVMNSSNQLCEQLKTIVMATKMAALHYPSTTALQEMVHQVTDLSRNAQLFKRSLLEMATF
Experimental: (§1) FIGS. 4A-E. P-Selectin binds the NEDD9 substrate domain. (A) HPAEC plasma membrane fractions were incubated with recombinant P-Selectin (0.5-1.0 μg), and liquid chromatography-mass spectrometry (LC-MS) was performed on samples following anti-P-Selectin immunoprecipitation. The MS2 spectra for each of the two detected NEDD9 peptide sequences, both within the substrate domain, are shown: K.[…].D (AA: 91-102; SEQ ID NO:9) (m z 677.36735 at retention time […]) (N9-P1) and K.[…].G (AA: 191-211; SEQ ID NO:10) (m/z 808.77731 at retention time […]) (N9-P2) (N=2 replicates for N=2 iterations). Underlining indicates a YxxP sequence. (B) HPAEC plasma membrane fractions were incubated with exogenous P-Selectin and co-immunoprecipitation for P-Selectin and NEDD9 was performed. PM, plasma membrane; UN, untreated. Varying concentrations of P-Selectin (ligand) (2 μM-0.5 nM) were co-incubated with NEDD9 (receptor) (20 nM) and microscale thermophoresis was performed to assess macromolecular interactions between these proteins. […]
(§2) Microscale Thermophoresis. […] In preliminary studies, we determined that Tris buffer containing 10% glycerol, 1% BSA, 0.05% Tween-20 and 5 mM DDT was an optimal buffer to minimize sample aggregation and adsorption in the capillary tube.³⁹ For experiments, NEDD9 (20 nM) was incubated with decreasing concentrations of P-Selectin (2 μM-0.5 nM) and MST scan was performed.

[2] = target: T2, endogenous human NEDD9 of human pulmonary artery endothelial cells (lysates and plasma membrane fractions) (human, UniProt Q14511 1-834, limits assumed); assay: co-immunoprecipitation from HPAEC plasma membrane fractions incubated with recombinant P-Selectin for 1 hr
T2 construct: Endogenous protein in cell material; also called NEDD9 in HPAECs; NEDD9 p55 fragment
T2 sequence (looked up): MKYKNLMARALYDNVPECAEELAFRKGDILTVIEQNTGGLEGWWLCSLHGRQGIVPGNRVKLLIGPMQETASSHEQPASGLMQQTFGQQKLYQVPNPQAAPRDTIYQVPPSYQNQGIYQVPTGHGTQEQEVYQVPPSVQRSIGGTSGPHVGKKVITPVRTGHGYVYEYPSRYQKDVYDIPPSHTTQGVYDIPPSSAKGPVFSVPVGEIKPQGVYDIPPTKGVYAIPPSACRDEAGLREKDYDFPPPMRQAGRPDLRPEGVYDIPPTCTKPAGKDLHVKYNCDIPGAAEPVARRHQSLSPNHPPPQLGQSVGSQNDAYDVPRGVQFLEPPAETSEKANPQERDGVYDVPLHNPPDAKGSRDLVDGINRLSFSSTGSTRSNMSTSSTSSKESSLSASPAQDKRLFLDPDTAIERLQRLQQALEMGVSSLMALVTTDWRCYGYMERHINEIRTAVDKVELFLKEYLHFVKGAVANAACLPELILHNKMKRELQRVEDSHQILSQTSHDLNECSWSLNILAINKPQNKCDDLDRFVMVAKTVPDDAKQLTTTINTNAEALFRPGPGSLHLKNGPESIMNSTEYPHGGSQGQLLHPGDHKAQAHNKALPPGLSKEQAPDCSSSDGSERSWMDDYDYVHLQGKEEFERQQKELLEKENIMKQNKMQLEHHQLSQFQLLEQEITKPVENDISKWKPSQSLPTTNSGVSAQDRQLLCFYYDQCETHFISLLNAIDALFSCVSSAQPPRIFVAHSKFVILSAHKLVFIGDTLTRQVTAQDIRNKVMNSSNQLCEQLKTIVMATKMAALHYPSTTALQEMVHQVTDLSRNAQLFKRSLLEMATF
Experimental: Magnetic beads (Bio-Rad SureBeads) were resuspended in 100 μl solution (1 mg at 10 mg/mL), magnetized, and serially washed with 1 mL PBS+0.1% Tween 20 (PBS-T). Primary antibody (10 μg) (Table 2) was added to the resuspended beads in a final volume of 200 μl and rotated at room temperature for 10 min. The beads were then magnetized and serially washed with 1 mL PBS-T before incubation with the antigen-containing HPAEC plasma membrane lysate (250-500 μl) plus recombinant P-Selectin (R&D Systems) (0.5-1.0 μg) for 1 hr at room temperature. In the cell-free immunoprecipitation experiment, the antibody-labeled beads were incubated with recombinant NEDD9 (Origene)³⁹ (5 ng) and recombinant P-Selectin (5 ng) in the presence of IgG₁ control, msAb-N9-P1 (10-20 uM), or msAb-N9-P2 (10-20 μM) for 1 hr at room temperature. […]
Next, LC-MS was performed on in-gel trypsin-digested lysates, and identified only two NEDD9 peptide sequences, both within the substrate domain: K.[…].D (AA: 91-102; SEQ ID NO:9) (N9-P1) and K.[…].G (AA: 191-211; SEQ ID NO:10) (N9-P2) (N=2 replicates for N=2 iterations) (FIG. 4A). […] Plasma membrane fractions from HPAECs were incubated with V-control or exogenous (recombinant) P-Selectin for 1 hr, and P-Selectin-NEDD9 complex formation was assessed by co-immunoprecipitation.

[3] = target: T1, recombinant human NEDD9 (neural …); assay: microscale thermophoresis; dye-labelled NEDD9 20 nM, P-Selectin titrated 2 µM-0.5 nM, N=2
Experimental: as §1, §2

B1: recombinant P-Selectin/CD62P, R&D Systems ADP3-200 (other, human, UniProt P16109 42-771, looked up)
chain: WTYHYSTKAYSWNISRKYCQNRYTDLVAIQNKNEIDYLNKVLPYYSSYYWIGIRKNNKTWTWVGTKKALTNEAENWADNEPNNKRNNEDCVEIYIKSPSAPGKWNDEHCLKKKHALCYTASCQDMSCSKQGECLETIGNYTCSCYPGFYGPECEYVRECGELELPQHVLMNCSHPLGNFSFNSQCSFHCTDGYQVNGPSKLECLASGIWTNKPPQCLAAQCPPLKIPERGNMTCLHSAKAFQHQSSCSFSCEEGFALVGPEVVQCTASGVWTAPAPVCKAVQCQHLEAPSEGTMDCVHPLTAFAYGSSCKFECQPGYRVRGLDMLRCIDSGHWSAPLPTCEAISCEPLESPVHGSMDCSPSLRAFQYDTNCSFRCAEGFMLRGADIVRCDNLGQWTAPAPVCQALQCQDLPVPNEARVNCSHPFGAFRYQSVCSFTCNEGLLLVGASVLQCLATGNWNSVPPECQAIPCTPLLSPQNGTMTCVQPLGSSSYKSTCQFICDEGYSLSGPERLDCTRSGRWTDSPPMCEAIKCPELFAPEQGSLDCSDTRGEFNVGSTCHFSCDNGFKLEGPNNVECTTSGRWSATPPTCKGIASLPTPGVQCPALTTPGQGTMYCRHHPGTFGFNTTCYFGCNAGFTLIGDSTLSCRPSGQWTAVTPACRAVKCSELHVNKPIAMNCSNLWGNFSYGSICSFHCLEGQLLNGSAQTACQENGHWSTTVPTCQAGPLTIQEA
notes: Bought recombinant protein; Species is read from 'Purified human NEDD9 and P-Selectin/CD62P'; also called exogenous P-Selectin
- EC50 (read off the curve) [1]: ~60 nM
- fold increase of NEDD9:P-Selectin complex formation against V-control [2]: 3 fold
- Kd [3]: 13.9 nM
